Measured values reported in patent publication US20240239875A1 (published 2024).
Where a chain is given by its changes, count along the chain named.

T1: HCoV-OC43 spike protein (HCoV-OC43)
T1 chain: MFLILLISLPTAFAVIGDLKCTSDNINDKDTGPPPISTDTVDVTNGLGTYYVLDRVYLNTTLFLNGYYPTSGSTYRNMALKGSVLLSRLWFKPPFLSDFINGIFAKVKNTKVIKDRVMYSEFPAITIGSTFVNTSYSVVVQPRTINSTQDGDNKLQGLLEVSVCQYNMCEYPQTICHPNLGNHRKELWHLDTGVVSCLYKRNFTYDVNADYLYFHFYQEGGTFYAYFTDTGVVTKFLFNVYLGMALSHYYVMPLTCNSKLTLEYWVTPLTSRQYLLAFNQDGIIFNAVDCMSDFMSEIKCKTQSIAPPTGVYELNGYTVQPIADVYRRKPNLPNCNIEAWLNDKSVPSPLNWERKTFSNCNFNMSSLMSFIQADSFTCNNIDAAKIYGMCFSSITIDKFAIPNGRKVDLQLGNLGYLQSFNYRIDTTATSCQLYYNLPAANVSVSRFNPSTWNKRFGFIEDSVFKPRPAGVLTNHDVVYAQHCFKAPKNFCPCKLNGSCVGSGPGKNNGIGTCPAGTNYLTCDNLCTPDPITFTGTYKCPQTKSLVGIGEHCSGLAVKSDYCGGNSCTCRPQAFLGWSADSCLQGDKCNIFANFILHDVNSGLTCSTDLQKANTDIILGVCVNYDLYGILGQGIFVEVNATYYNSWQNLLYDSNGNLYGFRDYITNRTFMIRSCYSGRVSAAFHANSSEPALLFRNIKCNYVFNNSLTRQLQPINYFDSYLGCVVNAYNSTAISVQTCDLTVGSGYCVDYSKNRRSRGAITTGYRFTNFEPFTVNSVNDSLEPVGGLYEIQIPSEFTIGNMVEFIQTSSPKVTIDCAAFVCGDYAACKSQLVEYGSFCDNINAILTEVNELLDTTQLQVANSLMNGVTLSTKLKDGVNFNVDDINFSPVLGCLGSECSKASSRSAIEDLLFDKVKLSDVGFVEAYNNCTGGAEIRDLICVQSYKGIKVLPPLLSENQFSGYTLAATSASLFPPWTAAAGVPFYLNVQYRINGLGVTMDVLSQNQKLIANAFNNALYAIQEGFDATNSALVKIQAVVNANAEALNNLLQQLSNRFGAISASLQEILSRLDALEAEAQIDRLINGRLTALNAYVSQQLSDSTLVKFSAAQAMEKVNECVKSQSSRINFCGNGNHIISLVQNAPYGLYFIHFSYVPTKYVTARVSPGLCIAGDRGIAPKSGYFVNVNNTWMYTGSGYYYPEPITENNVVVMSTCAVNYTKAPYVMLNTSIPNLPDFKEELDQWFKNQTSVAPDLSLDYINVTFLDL

T2: HKU1 spike protein (HCoV-HKU1)
T2 chain: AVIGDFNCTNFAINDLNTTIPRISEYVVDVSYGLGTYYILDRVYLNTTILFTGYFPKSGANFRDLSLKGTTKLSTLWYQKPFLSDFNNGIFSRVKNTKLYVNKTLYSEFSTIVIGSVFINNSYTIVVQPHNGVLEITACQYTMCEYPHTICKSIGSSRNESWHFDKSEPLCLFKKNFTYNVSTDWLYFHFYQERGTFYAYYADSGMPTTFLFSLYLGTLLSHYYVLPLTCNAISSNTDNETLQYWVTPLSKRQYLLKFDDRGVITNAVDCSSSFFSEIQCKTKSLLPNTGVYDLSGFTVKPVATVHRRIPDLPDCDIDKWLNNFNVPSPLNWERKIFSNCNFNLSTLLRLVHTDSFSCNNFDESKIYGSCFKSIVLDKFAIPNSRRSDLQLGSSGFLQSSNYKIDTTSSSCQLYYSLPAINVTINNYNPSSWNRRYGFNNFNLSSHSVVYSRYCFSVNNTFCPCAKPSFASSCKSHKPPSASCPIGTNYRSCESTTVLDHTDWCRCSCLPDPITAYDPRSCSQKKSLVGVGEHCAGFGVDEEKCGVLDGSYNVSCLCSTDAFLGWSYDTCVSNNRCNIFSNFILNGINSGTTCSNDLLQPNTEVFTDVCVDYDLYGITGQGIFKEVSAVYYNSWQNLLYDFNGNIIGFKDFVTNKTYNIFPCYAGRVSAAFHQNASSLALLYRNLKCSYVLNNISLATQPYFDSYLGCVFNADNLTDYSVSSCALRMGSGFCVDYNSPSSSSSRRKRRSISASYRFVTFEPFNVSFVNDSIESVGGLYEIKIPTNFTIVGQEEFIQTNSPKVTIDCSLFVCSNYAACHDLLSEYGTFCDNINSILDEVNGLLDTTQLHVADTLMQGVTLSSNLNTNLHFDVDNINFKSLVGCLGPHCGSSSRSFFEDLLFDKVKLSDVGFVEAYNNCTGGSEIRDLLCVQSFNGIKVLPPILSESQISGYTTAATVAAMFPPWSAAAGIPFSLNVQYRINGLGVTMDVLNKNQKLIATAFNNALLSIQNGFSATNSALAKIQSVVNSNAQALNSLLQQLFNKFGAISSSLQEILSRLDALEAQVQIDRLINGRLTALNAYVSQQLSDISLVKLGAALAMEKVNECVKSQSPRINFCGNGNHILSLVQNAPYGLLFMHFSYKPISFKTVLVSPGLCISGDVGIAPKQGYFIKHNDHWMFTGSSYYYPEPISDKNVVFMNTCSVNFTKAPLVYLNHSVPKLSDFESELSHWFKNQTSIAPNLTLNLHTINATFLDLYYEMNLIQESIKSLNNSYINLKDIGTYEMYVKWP

B1: 1-B11-A (antibody, V domains shown)
VH: QVQLQQSGPELVKPGASVKISCKASGYTFTDHYINWVKQRPGQGLEWIGWIFPGSGSTYYNEQFKGKATLTVDKSSNTAYMLLSSLTSEDSAVYFCARSGGLRLGFAYWGQGTLVTVSA
VL: DIQMTQTTSSLSASLGDRVTISCRASQDISNYLNWYQQKPDGTVKLLIYYTSRLHSGVPSRFSGSGSGTDYSLTISNLEQEDISTYFCQQVNTLPYTFGGGTKLEIK
B2: 9-F6-A (antibody, V domains shown)
VH: EVQLQQSGPELVKPGASVKMSCKASGYTFTSYIMHWVKQKPGQGLEWIGYILPYNDGTKYNEKFKGKATLTSDKSSSTAYMELRSLTSEDSAVYYCARWGYSNFLDSWGQGTTLTVSS
VL: B1 VL with S30N, S76R, S84A, V91G, Y96P
B3: 2-G20-A (antibody, V domains shown)
VH: EVQLQQSGPELVKPGASVKMSCKASGYTFPSYVLHWVKQKPGQGLEWIGYIYPYNDGTNYNEKFKGKATLTSDKSSSTAYMELSSLTSEDSAVYYCARGDYGDSAWFPYWGQGTLVTVSA
VL: DIVLTQSPASLAVSLGQRATISCRASKSVSTSGYSYMHWYQQKPGQPPKLLIYLASNLKSGVPARFSGGGSGTDFTLNIHPVEEEDAATYYCQLSRELPWTFGGGTKLEIK
B4: 7-D7-A (antibody, V domains shown)
VH: QVQLKESGPGLVAPSQSLSITCTVSGFSLTSYAISWVRQPPGKGLEWLGVIWPGGGTNYNSALKSRLSISKDNSKSQVFLKMNSLQTDDTAKYYCARTGYYFDYWGQGTTLTVSS
VL: QLILTQSPAIMSASPGEKVTMTCSASLSVNYMYWFQQKPGTSPKRWIHDTSKLASGVPARFSGSGSGTSYSLTISSMEAEDAATYYCQQWSSNPPMYTFGGGTKLEIK
B5: 8-A17-A (antibody, V domains shown)
VH: B4 VH with I51V, S70N, A91G, K92R, Y101H
VL: B4 VL with L2I, I3V, A25V, L27S, N30S, Y33H, F35Y, P39S, H48Y
B6: 1-L10-A (antibody, V domains shown)
VH: EVKLEESGGGLVQPGGSMKLSCVASGFTFNNYWMNWVRQSPEKGLEWVAQMRLKSDNYATHYAESVKGRFTISRDDSKSSVYLQMNNLRAEDTGIYYCIEGYWTYWGQGTLVTVSA
VL: QIVLTQSPAIMSASLGERVTMTCTASSSVSSSYLHWYQQKPGSSPKLWIYSTSNLASGVPARFSGNGSGTSYSLTISSMEAEDAATYYCLQYHRSPPYTFGGGTKLEIK
B7: 6-O12-A (antibody, V domains shown)
VH: QVQLQQPGTELVKPGASVKLSCKASGYTFTSYWMHWVKQRPGQGLEWIGNINPSNGGTNYNEKFRSKATLTVDKSSSTAYMQLSSLTSEDSAVYYCARLGWFLPLGSWGQGTTLTVSS
VL: QIVLTQSPAIMSASLGEVITLTCSASSSVSYMHWYQQKSGTSPKLLIYSTSNLASGVPSRFSGSGSGTFYSLTISSVEAEDAADYYCHQWSGYMYTFGGGTKLEIK

The binders below were run against SARS-CoV-2 prefusion stabilized trimer protein (WIV02 isolate spike protein) (UniProt P0DTC2 14-1213) (assay: ELISA).

Binder	EC50
B1	10.3 nM

These binders were tested against SARS-CoV-2 S2 domain (UniProt P0DTC2 686-1213) (assay: ELISA).

Binder	EC50
B1	6.62 nM

Molecular target: T1, HCoV-OC43 spike protein
Assay: ELISA

Binder	EC50
B2	0.05 nM
B1	0.57 nM
B3	0.28 nM
B4	0.23 nM
B5	0.05 nM
B6	0.77 nM
B7	0.23 nM

Molecular target: T2, HKU1 spike protein
Assay: ELISA

Binder	EC50
B2	0.61 nM
B1	0.82 nM
B3	1.39 nM
B4	1.3 nM
B5	0.37 nM
B6	2.73 nM
B7	0.41 nM
